Measurements from patent publication US20220185881A1 (JIANGSU HENGRUI MEDICINE, published 2022).
Blank lines part the entries; values can stand above or below the binder they belong to.

Target: human Claudin 18.2 (human)
Assay: cell-based or functional assay

IC50 (ng/ml), ADCC effect (FcrR3A-V158-NFAT-RE-Jurkat effector cells, Bright-Glo), NUGC4 cells with high expression of Claudin 18.2: 133 ng/mL | IC50 (ng/ml), ADCC effect (FcrR3A-V158-NFAT-RE-Jurkat effector cells, Bright-Glo), NUGC4 cells with low expression of Claudin 18.2: 183 ng/mL | IC50 (ng/ml), ADCC effect (FcrR3A-V158-NFAT-RE-Jurkat effector cells, Bright-Glo), NUGC4 cells with medium expression of Claudin 18.2: 210 ng/mL
B1: IMAB-362 (antibody, human IgG1, kappa, V domains shown)
VH: QVQLQQPGAELVRPGASVKLSCKASGYTFTSYWINWVKQRPGQGLEWIGNIYPSDSYTNYNQKFKDKATLTVDKSSSTAYMQLSSPTSEDSAVYYCTRSWRGNSFDYWGQGTTLTVSS
VL: DIVMTQSPSSLTVTAGEKVTMSCKSSQSLLNSGNQKNYLTWYQQKPGQPPKLLIYWASTRESGVPDRFTGSGSGTDFTLTISSVQAEDLAVYYCQNDYSYPFTFGSGTKLEIKR

IC50 (ng/ml), ADCC effect (FcrR3A-V158-NFAT-RE-Jurkat effector cells, Bright-Glo), NUGC4 cells with high expression of Claudin 18.2: 26.2 ng/mL | IC50 (ng/ml), ADCC effect (FcrR3A-V158-NFAT-RE-Jurkat effector cells, Bright-Glo), NUGC4 cells with low expression of Claudin 18.2: 22.4 ng/mL | IC50 (ng/ml), ADCC effect (FcrR3A-V158-NFAT-RE-Jurkat effector cells, Bright-Glo), NUGC4 cells with medium expression of Claudin 18.2: 15.3 ng/mL
B2: h1901-11 (antibody, human IgG1, kappa, V domains shown)
VH: EVQLVESGGGLVQPGGSLRLSCAASGFTFSDYGIHWVRQAPGKGLEWIAYISRGSSTIYYADTVKGRFTISRDNAKNSLYLQMTSLRAEDTAVYYCARGGYDTRNAMDYWGQGTTVTVSS
VL: DIVMTQSPDSLAVSLGERATISCKSSQSLLNSGNQKNYLAWYQQKPGQPPKLLIYGASTRASGVPDRFSGSGSGTDFTLTISSLQAEDVAIYHCQNDLYYPLTFGQGTKLEIKR
